Laboratory results: PMC10397247

Key:
Test in all cases: two-hybrid library CCNG1;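 note: natural log of median RNA to DNA barcode read ratio; higher means stronger binding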
4H3041-bH = biological target: T1, 4H3041-bH
T1 chain: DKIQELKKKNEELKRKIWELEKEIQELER

4H477-bH = biological target: T2, 4H477-bH
T2 chain: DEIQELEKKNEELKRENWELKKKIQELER

4H949-bH = biological target: T3, 4H949-bH
T3 chain: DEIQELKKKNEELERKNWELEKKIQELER

4H3381-bH = biological target: T4, 4H3381-bH
T4 chain: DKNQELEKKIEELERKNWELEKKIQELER

4H2162-bH = biological target: T5, 4H2162-bH
T5 chain: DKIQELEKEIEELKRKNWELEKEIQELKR

4H3057-bH = biological target: T6, 4H3057-bH
T6 chain: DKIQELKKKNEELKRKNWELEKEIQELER

4H319-bH = biological target: T7, 4H319-bH
T7 chain: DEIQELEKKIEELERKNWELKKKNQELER

4H2233-bH = biological target: T8, 4H2233-bH
T8 chain: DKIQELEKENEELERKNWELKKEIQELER

4H741-bH = biological target: T9, 4H741-bH
T9 chain: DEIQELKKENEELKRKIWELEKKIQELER

4H2859-bH = biological target: T10, 4H2859-bH
T10 chain: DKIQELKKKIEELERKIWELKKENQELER

4H2760-bH = biological target: T11, 4H2760-bH
T11 chain: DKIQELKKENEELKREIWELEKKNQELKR

4H56-bH = biological target: T12, 4H56-bH
T12 chain: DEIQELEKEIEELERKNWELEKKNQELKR

4H3364-bH = biological target: T13, 4H3364-bH
T13 chain: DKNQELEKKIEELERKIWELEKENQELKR

4H932-bH = biological target: T14, 4H932-bH
T14 chain: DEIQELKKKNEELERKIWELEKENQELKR

4H2503-bH = biological target: T15, 4H2503-bH
T15 chain: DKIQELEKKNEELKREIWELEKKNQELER

4H2253-bH = biological target: T16, 4H2253-bH
T16 chain: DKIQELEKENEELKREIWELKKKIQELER

4H730-bH = biological target: T17, 4H730-bH
T17 chain: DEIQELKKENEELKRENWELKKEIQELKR

4H2438-bH = biological target: T18, 4H2438-bH
T18 chain: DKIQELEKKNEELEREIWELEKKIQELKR

4H3297-bH = biological target: T19, 4H3297-bH
T19 chain: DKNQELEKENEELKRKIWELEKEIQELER

4H754-bA = biological target: T20, 4H754-bA
T20 chain: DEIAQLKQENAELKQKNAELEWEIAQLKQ

4H2692-bH = biological target: T21, 4H2692-bH
T21 chain: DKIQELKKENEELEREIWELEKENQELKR

4H349-bH = biological target: T22, 4H349-bH
T22 chain: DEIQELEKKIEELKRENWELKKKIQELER

4H2915-bH = biological target: T23, 4H2915-bH
T23 chain: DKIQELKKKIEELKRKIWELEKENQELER

4H2473-bH = biological target: T24, 4H2473-bH
T24 chain: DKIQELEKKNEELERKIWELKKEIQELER

4H2223-bH = biological target: T25, 4H2223-bH
T25 chain: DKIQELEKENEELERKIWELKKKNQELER

4H2143-bH = biological target: T26, 4H2143-bH
T26 chain: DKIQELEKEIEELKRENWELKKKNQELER

4H796-bH = biological target: T27, 4H796-bH
T27 chain: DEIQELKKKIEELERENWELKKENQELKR

4H3277-bH = biological target: T28, 4H3277-bH
T28 chain: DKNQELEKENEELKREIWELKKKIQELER

4H2717-bH = biological target: T29, 4H2717-bH
T29 chain: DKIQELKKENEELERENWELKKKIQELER

4H2585-bH = biological target: T30, 4H2585-bH
T30 chain: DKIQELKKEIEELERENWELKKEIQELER

4H348-bH = biological target: T31, 4H348-bH
T31 chain: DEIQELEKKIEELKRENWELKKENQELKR

4H235-bH = biological target: T32, 4H235-bH
T32 chain: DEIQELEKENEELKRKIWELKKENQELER

4H4001-bN = biological target: T33, 4H4001-bN
T33 chain: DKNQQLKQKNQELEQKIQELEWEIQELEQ

4H2444-bH = biological target: T34, 4H2444-bH
T34 chain: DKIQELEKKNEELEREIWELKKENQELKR

4H492-bH = biological target: T35, 4H492-bH
T35 chain: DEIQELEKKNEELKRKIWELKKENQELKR

4H264-bH = biological target: T36, 4H264-bH
T36 chain: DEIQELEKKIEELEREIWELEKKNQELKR

4H40-bH = biological target: T37, 4H40-bH
T37 chain: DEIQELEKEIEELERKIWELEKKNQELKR

4H2839-bH = biological target: T38, 4H2839-bH
T38 chain: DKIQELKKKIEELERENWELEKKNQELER

4H2588-bH = biological target: T39, 4H2588-bH
T39 chain: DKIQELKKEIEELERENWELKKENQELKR

4H2518-bH = biological target: T40, 4H2518-bH
T40 chain: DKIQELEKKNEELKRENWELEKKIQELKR

4H2931-bH = biological target: T41, 4H2931-bH
T41 chain: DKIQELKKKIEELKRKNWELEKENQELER

4H1629-bA = biological target: T42, 4H1629-bA
T42 chain: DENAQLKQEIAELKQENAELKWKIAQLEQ

4H1393-bA = biological target: T43, 4H1393-bA
T43 chain: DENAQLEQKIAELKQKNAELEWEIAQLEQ

4H3638-bA = biological target: T44, 4H3638-bA
T44 chain: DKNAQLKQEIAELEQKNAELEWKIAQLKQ

4H1804-bA = biological target: T45, 4H1804-bA
T45 chain: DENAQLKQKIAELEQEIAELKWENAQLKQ

4H619-bA = biological target: T46, 4H619-bA
T46 chain: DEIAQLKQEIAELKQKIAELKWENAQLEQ

4H3974-bA = biological target: T47, 4H3974-bA
T47 chain: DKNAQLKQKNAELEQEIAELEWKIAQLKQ

4H906-bA = biological target: T48, 4H906-bA
T48 chain: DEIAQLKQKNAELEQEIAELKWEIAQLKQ

4H3129-bA = biological target: T49, 4H3129-bA
T49 chain: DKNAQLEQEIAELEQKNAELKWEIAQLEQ

4H3631-bA = biological target: T50, 4H3631-bA
T50 chain: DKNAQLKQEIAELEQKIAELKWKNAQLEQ

4H584-bA = biological target: T51, 4H584-bA
T51 chain: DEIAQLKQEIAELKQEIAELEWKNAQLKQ

4H3414-bA = biological target: T52, 4H3414-bA
T52 chain: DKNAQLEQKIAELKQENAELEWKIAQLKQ

4H570-bA = biological target: T53, 4H570-bA
T53 chain: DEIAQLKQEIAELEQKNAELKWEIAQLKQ

4H1985-bA = biological target: T54, 4H1985-bA
T54 chain: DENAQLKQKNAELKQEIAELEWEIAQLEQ

4H3817-bA = biological target: T55, 4H3817-bA
T55 chain: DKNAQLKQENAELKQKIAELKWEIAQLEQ

4H850-bA = biological target: T56, 4H850-bA
T56 chain: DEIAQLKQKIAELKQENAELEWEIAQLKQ

4H1710-bA = biological target: T57, 4H1710-bA
T57 chain: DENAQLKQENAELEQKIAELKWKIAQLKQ

4H3172-bA = biological target: T58, 4H3172-bA
T58 chain: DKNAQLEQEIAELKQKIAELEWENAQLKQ

4H1449-bA = biological target: T59, 4H1449-bA
T59 chain: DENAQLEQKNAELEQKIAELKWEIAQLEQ

## DKIQELEKEIEELKRENWELKKKNQELER [4H2143-bH]
4H3041-bH
  interaction score: -0.203
4H477-bH
  interaction score: -0.0383
4H949-bH
  interaction score: -0.954
4H3381-bH
  interaction score: 0.106
4H2162-bH
  interaction score: 0.12
4H3057-bH
  interaction score: 0.0434
4H319-bH
  interaction score: -1.46
4H2233-bH
  interaction score: 0.334
4H741-bH
  interaction score: 0.515
4H2859-bH
  interaction score: -0.954
4H2760-bH
  interaction score: -0.0706
4H56-bH
  interaction score: 0.127
4H3364-bH
  interaction score: 0.347
4H932-bH
  interaction score: -0.164
4H2503-bH
  interaction score: -1.13
4H2253-bH
  interaction score: -1.13
4H730-bH
  interaction score: -0.835
4H2438-bH
  interaction score: -0.916
4H3297-bH
  interaction score: -0.15
4H754-bA
  interaction score: -0.871
4H2692-bH
  interaction score: -0.348
4H349-bH
  interaction score: -0.148
4H2915-bH
  interaction score: -0.577
4H2473-bH
  interaction score: -0.279
4H2223-bH
  interaction score: -0.434
4H2143-bH
  interaction score: 0.693
4H796-bH
  interaction score: -1.45
4H3277-bH
  interaction score: -0.719
4H2717-bH
  interaction score: -0.549
4H2585-bH
  interaction score: -1.12
4H348-bH
  interaction score: 0.059
4H235-bH
  interaction score: -0.618
4H4001-bN
  interaction score: -1.45
4H2444-bH
  interaction score: -0.824
4H492-bH
  interaction score: -0.638
4H264-bH
  interaction score: 0.605
4H40-bH
  interaction score: 1
4H2839-bH
  interaction score: 1.24
4H2588-bH
  interaction score: -0.874
4H2518-bH
  interaction score: 0.15
4H2931-bH
  interaction score: 0.0986

## DENAQLEQKIAELKQKNAELEWEIAQLEQ [4H1393-bA]
4H1629-bA
  interaction score: -1.57
4H1393-bA
  interaction score: -1.08
4H3638-bA
  interaction score: 1.8
4H1804-bA
  interaction score: -1.14
4H619-bA
  interaction score: -1.63
4H3974-bA
  interaction score: -0.626
4H906-bA
  interaction score: -1.12
4H3129-bA
  interaction score: -0.0989
4H3297-bH
  interaction score: -0.857
4H754-bA
  interaction score: -1.58
4H3631-bA
  interaction score: -0.847
4H584-bA
  interaction score: -1.22
4H3414-bA
  interaction score: 0.166
4H570-bA
  interaction score: -0.941
4H1985-bA
  interaction score: -1.7
4H3817-bA
  interaction score: -1.23
4H850-bA
  interaction score: -0.951
4H1710-bA
  interaction score: -1.72
4H3172-bA
  interaction score: -1.3
4H1449-bA
  interaction score: -1.31
